B1: H2-Kb / B10 (parent)
chain 1: GQQVQQSPASLVLQEGENAELQCNFSSTATRLQWFYQRPGGSLVSLLSNPSGTKHTGRLTSTTVTKERRGSLHISSSQITDSGTYLCAPGGSNAKLTFGKGTKLSVKS
chain 2: DPKIIQKPKYLVAVTGSEKILICEQYLGHNAMYWYRQSAKKPLEFMFSYSYQKLMDNQTASSRFQPQSSKKNHLDLQITALKPDDSATYFCASSLRGGNNQAPLFGEGTRLSVL
chain 3: not shown
chain 4: IQKTPQIQVYSRHPPENGKPNILNCYVTQFHPPHIEIQMLKNGKKIPKVEMSDMSFSKDWSFYILAHTEFTPTETDTYACRVKHDSMAEPKTVYWDRDM
chain 5: SIINFEKL
B2: H2-Kb / B2 (parent)
chain 1: GEQVEQRPPHLSVREGDSAVIICTYTDPNSYYFFWYKQEPGAGLQLLMKVFSSTEINEGQGFTVLLNKKDKQLSLNLTAAHPGDSAVYFCAVSQMSNYNVLYFGSGTKLTVEP
chain 2: EAAVTQSPRNKVAVTGGKVTLSCNQTNNHNNMYWYRQDTGHGLRLIHYSYGAGSTEKGDIPDGYKASRPSQENFSLILELATPSQTSVYFCASGTGGSGQLYFGEGSKLTVL
chain 3: not shown
chain 4: B1 chain 4
chain 5: SIINFEKL

Variants of: B1
Assay: % of reporter cells activated (NFAT-GFP), raw
Conditions: with B10; scale: % of reporter cells activated
Further: test concentration or dose not given here.

Ratio to parent: each site, then its substitutions
chain 5 K7: I 2.29; S 1.39; Y 0.995; C 1.34; G 0.898; M 2.2; F 1.64; R 1.17; H 2.02; V 1.37; Q 0.636; A 1.64; E 1.37; W 1; D 1.09; T 1.22; L 1.85; N 1.54; P 1.37
chain 5 E6: C 1.72; A 0.973; I 0.763; V 1.44; K 1.31; S 1.65; F 1.74; N 0.915; Q 1.31; H 0.924; T 1.75; L 1.28; W 1.09; P 0.983; D 1.26; M 1.2; Y 1.57; G 1.53; R 1.9
chain 5 I2: P 1; A 1.03; G 0.624; F 1.5; Y 1.22; N 0.875; V 2.51; R 1.05; K 1.71; W 0.82; H 0.888; C 2.08; S 1.22; Q 1.43; D 1.32; T 1.49; L 0.898; E 1.27; M 0.729
chain 5 S1: M 1.64; T 1.1; P 0.849; H 1.08; V 1.15; Y 0.966; L 1.32; I 1.1; E 0.864; F 0.678; Q 0.831; K 1.53; A 0.498; N 1.71; D 0.924; G 0.831; R 0.627; C 1.07; W 1.07
chain 5 L8: Y 0.356; I 0.769; W 0.814; P 1.39; R 1.34; H 0.966; T 0.915; M 0.831; G 0.683; A 1.07; C 1.27; V 0.51; E 1.53; K 1.12; N 0.915; F 1.03; Q 1.11; S 0.903; D 0.849
chain 5 N4: T 1.73; M 0.932; I 1.8; K 1.32; W 1.66; S 1.01; H 1.88; D 2.53; F 1.51; R 1.37; A 1.86; E 1.19; G 1.28; V 1.85; Q 1.19; C 2.85; L 1.05; Y 2.14; P 1.81
chain 5 F5: G 1.63; H 1.27; W 1.03; T 0.847; V 1.02; P 1.86; Y 1.41; N 2.03; Q 1.64; K 1.49; L 2.41; C 1.1; E 2.36; M 1.49; S 1.46; I 1.83; D 4.25; R 1.1; A 1.31
chain 5 I3: P 0.949; N 0.966; C 0.746; L 1.93; F 0.897; G 1.61; W 0.831; S 1.22; Y 1.97; A 0.702; M 1.2; Q 0.61; E 1.13; V 1.12; T 1.44; H 1.53; D 0.864; K 1.47; R 0.903

Variants of: B2
Assay: % of reporter cells activated (NFAT-GFP), raw
Conditions: with B2; scale: % of reporter cells activated

Ratio to parent of substitutions, site by site:
chain 5 F5: K 0.741; P 0.703; V 0.346; T 0.632; M 1.38; R 0.476; C 3.54; I 1.82; Y 7.49; S 0.73; E 0.573; N 1.95; W 0.519; H 12.1; G 0.438

Source: publication PMC11480844
